T1: SNAP25 Peptide 2 (PEP2) (Homo sapiens, UniProt P60880 SEQ:1-37)
T1 chain: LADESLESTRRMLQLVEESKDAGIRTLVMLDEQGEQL

B1: PEP 2.13 (ssDNA)
DNA: TTTTTAAGCCCACATGCCTGTGGTCATCGAACATTGGGCCGGTCGTGCCATG
modifications: W indole, X amine, Y phenol modified dU [15,19,24,27,34,35,43,46]
B2: PEP 2.08 (ssDNA)
DNA: TTTTTAAGCCCACGTTTGTTCGGTGGTCACAGCACGCCACGGTCGTGCCATG
modifications: W indole, X amine, Y phenol modified dU [15,16,17,19,20,24,27,43,46]
B3: PEP 2.05 (ssDNA)
DNA: TTTTTAAGCCCACCCTACTGTGGTCACCACAGTGCAAGCCCGTCGTGCCATG
modifications: W indole, X amine, Y phenol modified dU [16,19,24,43,46]
B4: PEP 2.12 (ssDNA)
DNA: TTTTTAACACGACTAGACTGTGTATCCCACAGGGCAATGTGGTCGTGCCATG
modifications: W indole, X amine, Y phenol modified dU [14,19,23,25,38,40,43,46]
B5: PEP 2.11 (ssDNA)
DNA: TTTTTAAGCCCACTTGGCTGTGCACATCACAGAACAAGCAGGTGGGCCCATG
modifications: W indole, X amine, Y phenol modified dU [14,15,19,27]
B6: PEP 2.06 (ssDNA)
DNA: TTTTTAACACGACCGGCCTGTGGTCAGCACAGACTGTTGTGGTCGTGCCATG
modifications: W indole, X amine, Y phenol modified dU [19,24,35,38,40,43,46]
B7: PEP 2.14 (ssDNA)
DNA: TTTTTAAGCCCACGGGTCTGTGGTCACCGAACGACGTGGCAGTGGGCCCATG
modifications: W indole, X amine, Y phenol modified dU [17,19,24]
B8: PEP 2.10 (ssDNA)
DNA: TTTTTAAGCCCACTGGCCTGTGGTCAGCGAACTGTGCGCTGGTGGGCCCATG
modifications: W indole, X amine, Y phenol modified dU [14,19,24,35,40]
B9: PEP 2.03 (ssDNA)
DNA: TTTTTAACACGACGGTGCTGTGCTGGTCACAGCACGCGCGCGTCGTGCCATG
modifications: W indole, X amine, Y phenol modified dU [16,19,24,27,43,46]
B10: PEP 2.02 (ssDNA)
DNA: TTTTTAAGCCCACATACGTTCGATGGTCACAGATTGGGCAAGTCGTGCCATG
modifications: W indole, X amine, Y phenol modified dU [15,19,20,24,27,34,35,43,46]
B11: PEP 2.01 (ssDNA)
DNA: TTTTTAACACGACGTTACTGTGGTCACCACAGGATGAGCCTGTCGTGCCATG
modifications: W indole, X amine, Y phenol modified dU [15,16,19,24,35,43,46]
B12: PEP 2.15 (ssDNA)
DNA: TTTTTAACACGACGTTACTGTGGTCACCACAGGATGAGCTTGTCGTGCCATG
modifications: W indole, X amine, Y phenol modified dU [15,16,19,24,35,40,43,46]
B13: PEP 2.17 (ssDNA)
DNA: TTTTTAACACGACGTTACTGTGGTCACCACAGGATGAGGCTGTCGTGCCATG
modifications: W indole, X amine, Y phenol modified dU [15,16,19,24,35,43,46]
B14: PEP 2.18 (ssDNA)
DNA: TTTTTAACACGACGTTACTGTGGTCATCACAGGATGAGCCTGTCGTGCCATG
modifications: W indole, X amine, Y phenol modified dU [15Y,16W,19Y,24W,27X,35Y,43X,46Y]
B15: PEP 2.16 (ssDNA)
DNA: TTTTTAAGCCCACATAGGTTCGGTGGTCACAGTGTGGTGCGGTGGGCCCATG
modifications: W indole, X amine, Y phenol modified dU [15,19,20,24,27,35,38]
B16: PEP 2.07 (ssDNA)
DNA: TTTTTAACACGACGTCGCTGTGGTCAACGAACAGATACAACGTCGTGCCATG
modifications: W indole, X amine, Y phenol modified dU [15,19,24,36,43,46]
B17: PEP 2.09 (ssDNA)
DNA: TTTTTAACACGACATAGGTTCGCTGGTCACAGAATGTTGTGGTGGGCCCATG
modifications: W indole, X amine, Y phenol modified dU [15,19,20,24,27,35,38,40]
B18: PEP 2.04 (ssDNA)
DNA: TTTTTAACACGACATGGCTGTGGTCATCACAGCGCACCATTGTCGTGCCATG
modifications: W indole, X amine, Y phenol modified dU [15,19,24,27,40,43,46]
B19: SNAP.03 (ssDNA)
DNA: TTTTTAAGCCCACGGGTGTTCGACAGACACAGCAATACATCGTGGGCCCATG
modifications: W indole, X amine, Y phenol modified dU [17,19,20,36,40]
B20: SNAP.05 (ssDNA)
DNA: TTTTTAAGCCCACCCCGGTTCGCCAGACGAACCCCAACAGTGTGGGCCCATG
modifications: W indole, X amine, Y phenol modified dU [19,20]
B21: SNAP.06 (ssDNA)
DNA: TTTTTAAGCCCACTTCGCTGTGAGCAACGAACATCGAGCAGGTCGTGCCATG
modifications: W indole, X amine, Y phenol modified dU [14,15,19,34,43,46]
B22: SNAP.02 (ssDNA)
DNA: TTTTTAAGCCCACACTGCTGTGAAGGACACAGCCCGACATCGTCGTGCCATG
modifications: W indole, X amine, Y phenol modified dU [16,19,40,43,46]
B23: SNAP.04 (ssDNA)
DNA: TTTTTAAGCCCACCCACCTGTGGACATCGAACCTCACTGCAGTGGGCCCATG
modifications: W indole, X amine, Y phenol modified dU [19,27,34,38]
B24: PEP 4.11 (ssDNA)
DNA: TTTTTAAGCCCACCCGAGTTCGTCCAGCGAACCACGCGCGTGTCGTGCCATG
B25: PEP 4.18 (ssDNA)
DNA: TTTTTAACACGACTATTCTGTGAGTCTCGAACTGCGACAACGTGGGCCCATG
B26: PEP 4.17 (ssDNA)
DNA: TTTTTAAGCCCACGCCAGTTCGGTCAACGAACTACGGTGATGTGGGCCCATG
B27: PEP 4.05 (ssDNA)
DNA: TTTTTAAGCCCACATAAGTTCGCAAGTCACAGCGATGTGATGTCGTGCCATG
B28: PEP 4.13 (ssDNA)
DNA: TTTTTAAGCCCACGGCCGTTCGGCCACCACAGTGTGGCAGCGTCGTGCCATG
B29: PEP 4.12 (ssDNA)
DNA: TTTTTAACACGACAGCCCTGTGCAGGCCGAACGGCGTTGATGTCGTGCCATG
B30: PEP 4.07 (ssDNA)
DNA: TTTTTAAGCCCACTCGTGTTCGCACACCGAACCACAAGCTAGTGGGCCCATG
B31: PEP 4.20 (ssDNA)
DNA: TTTTTAAGCCCACACGTGTTCGGATCGCACAGTTATTGGCAGTCGTGCCATG
B32: PEP 4.22 (ssDNA)
DNA: TTTTTAAGCCCACGGTGCTGTGGAAGCCACAGTACAATGGAGTGGGCCCATG
B33: PEP 4.06 (ssDNA)
DNA: TTTTTAAGCCCACGAGAGTTCGATAGTCACAGATTGGCACCGTCGTGCCATG
B34: PEP 4.04 (ssDNA)
DNA: TTTTTAAGCCCACGATCCTGTGCTTCGCACAGCTCGAGCTAGTGGGCCCATG
B35: PEP 4.02 (ssDNA)
DNA: TTTTTAAGCCCACTACTGTTCGAAGGGCACAGTCCAGGCCGGTGGGCCCATG
B36: PEP 4.21 (ssDNA)
DNA: TTTTTAAGCCCACGGGGCTGTGAGCAACGAACATTGGCACAGTCGTGCCATG
B37: PEP 4.10 (ssDNA)
DNA: TTTTTAAGCCCACAAGACTGTGCGTCGCACAGATTGGCATCGTCGTGCCATG
B38: PEP 4.01 (ssDNA)
DNA: TTTTTAAGCCCACAAGCGTTCGGCTCTCACAGATCGTTGACGTGGGCCCATG
B39: PEP 4.19 (ssDNA)
DNA: TTTTTAAGCCCACAAGCGTTCGGCTCTCATAGATCGTTGACGTGGGCCCATG
B40: PEP 4.09 (ssDNA)
DNA: TTTTTAACACGACATATGTTCGACGGACACAGTGTGTGGCGGTCGTGCCATG
B41: PEP 4.14 (ssDNA)
DNA: TTTTTAAGCCCACAAAAGTTCGGGCAGCACAGGTCGCTGAGGTCGTGCCATG
B42: PEP 4.16 (ssDNA)
DNA: TTTTTAACACGACAGACCTGTGATGGTCGAACTCCATGCATGTGGGCCCATG
B43: PEP 4.15 (ssDNA)
DNA: TTTTTAACACGACGTGACTGTGAGAGGCACAGTTTGGGGGCGTGGGCCCATG
B44: PEP 4.03 (ssDNA)
DNA: TTTTTAACACGACAGGGGTTCGTAGGACACAGGTTGATGTTGTGGGCCCATG
B45: PEP 4.08 (ssDNA)
DNA: TTTTTAACACGACCATTCTGTGCCAGCCGAACTCCGTGCTGGTGGGCCCATG

This is an account of results in patent publication US20220064648, “NOVEL X-[…] FOR THE USE IN DETECTION OF SNAP25” (Galderma Holding S.A., published 2022).

One data set has as its target T1, SNAP25 Peptide 2 (PEP2). Kind of data set: ELONA.
Details: not given
An excerpt:
(§1) The data in Table 2 was collected by running direct ELISA assays on the 96 X-aptamers, elucidating their ability to bind SNAP25, SNAP25 fragments (PEP1, PEP2, PEP3, and PEP4), and a negative control. The X-aptamers were biotinylated and immobilized onto streptavidin-coated plates and were utilized as detection molecules. Higher numbers represent strong binding. The negative control peptide is a random peptide to measure the amount of binding that occurs to a random amino acid sequence.
Regarding B1, the binding signal came to 36 ELISA signal. B2: the binding signal was 65 ELISA signal. Still for that read-out and setting: the result for B3 reads 159 ELISA signal.

B4 came in with a binding signal of 37 ELISA signal. In turn, B5 showed a binding signal of 40 ELISA signal. On the same count and under the same terms, for B6 the value was 102 ELISA signal; for B7, 36 ELISA signal; for B8, 43 ELISA signal. On the same count and under the same terms, the result for B9 reads 221 ELISA signal. On the same count and under the same terms, for B10 the value was 394 ELISA signal; for B11, 592 ELISA signal; for B12, 36 ELISA signal. As for B13, the binding signal stood at 30 ELISA signal. On the same count and under the same terms, for B14 the value was 26 ELISA signal; for B15, 31 ELISA signal; for B16, 65 ELISA signal. On the same count and under the same terms, the result for B17 reads 46 ELISA signal; that for B18, 190 ELISA signal.

The target in a further data set is SNAP25 full length (FLAG and MYC tagged) (Homo sapiens, UniProt P60880 SEQ:12-217). Kind of data set: ELONA. As to conditions: tags: FLAG and MYC.
Sequence of SNAP25 full length (FLAG and MYC tagged) (P60880 whole entry): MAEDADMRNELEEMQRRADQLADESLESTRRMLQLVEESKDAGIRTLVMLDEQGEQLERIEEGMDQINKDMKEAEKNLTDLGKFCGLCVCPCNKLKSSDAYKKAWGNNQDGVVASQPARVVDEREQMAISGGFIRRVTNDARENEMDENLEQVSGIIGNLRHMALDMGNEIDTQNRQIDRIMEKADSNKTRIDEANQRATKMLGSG
Source text: as §1
Take B19: the binding signal was determined as 92 ELISA signal. Same read-out and setting: for B20 the value was 75 ELISA signal; for B21, 45 ELISA signal. The same measure, in the same setting: for B22 the value was 95 ELISA signal; for B23, 83 ELISA signal.

For the next data set, the target named is SNAP25 Peptide 4 (PEP4, BoNT/A cleavage site region) (Homo sapiens, UniProt P60880 SEQ:1-24). Kind of data set: ELONA. As to conditions: label: biotin.
Sequence of SNAP25 Peptide 4 (PEP4, BoNT/A cleavage site region) (P60880 174-197): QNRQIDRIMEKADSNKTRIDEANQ
For B24, the binding signal is 67 ELISA signal. Molecule B25 came in with a binding signal of 18 ELISA signal.

B26 yielded a binding signal of 24 ELISA signal. Consider B27, for which the binding signal is 170 ELISA signal.

B28 registered a binding signal of 57 ELISA signal.

In the case of B29, the binding signal amounted to 61 ELISA signal.

The molecule B30 displayed a binding signal of 105 ELISA signal. On the same count and under the same terms, the result for B31 reads 18 ELISA signal. In the case of B32, the binding signal stood at 17 ELISA signal. As to B33, the binding signal is 131 ELISA signal.

The molecule B34 gave a binding signal of 186 ELISA signal. On the same count and under the same terms, the result for B35 reads 208 ELISA signal; that for B36, 18 ELISA signal; that for B37, 76 ELISA signal. Still for that read-out and setting: the result for B38 reads 257 ELISA signal. Same read-out and setting: for B39 the value was 18 ELISA signal.

The molecule B40 gave a binding signal of 85 ELISA signal. B41 returned a binding signal of 37 ELISA signal. Still for that read-out and setting: for B42 the value was 35 ELISA signal; for B43, 37 ELISA signal.

B44 registered a binding signal of 202 ELISA signal. The same measure, in the same setting: the result for B45 reads 94 ELISA signal.
